The chains are these.
B1: glmS ribozyme (parent)
chain: AUAAAAGCGCCAGAACUACAGAAAUGUAGUUGACGAGGAGGAGGUUUAUCGAAUUUUCGGCGGAUGCCUCCAAA

What all share (details): with glucosamine-6-phosphate
The variants in data set [1] derive from B1. The data set can be described thus: kcat; higher = faster cleavage; RNA array. Summed up:
(§1)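 In situ transcription by E. coli RNA polymerase produced barcoded ribozyme variants on sequenced MiSeq chips, and a hybridised Cy3 probe tracked them at 37 °C. Glucosamine-6-phosphate was flowed in at 40 μM to 10 mM in HEPES/KCl/Mg(OAc)2 buffer. kcat and KM were taken from weighted Michaelis–Menten fits of kobs values from exponential decay fits.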

The variants in data set [2] derive from B1. The data set can be described thus: self-cleavage kobs at 640 uM GlcN6P; higher = faster cleavage; RNA array. In short, it runs like this:
as §1

In data set [3] the parent is B1. The data set can be described thus: self-cleavage kobs at 10000 uM GlcN6P; higher = faster cleavage; RNA array. In short, it runs like this: as §1
Variants of B1 are the subject of data set [4]. Description: KM; higher = weaker cofactor use; RNA array. Summed up: as §1
In data set [5] the parent is B1. The data set can be described thus: self-cleavage kobs at 2500 uM GlcN6P; higher = faster cleavage; RNA array. In short, it runs like this: as §1
The variants in data set [6] derive from B1. The data set can be described thus: self-cleavage kobs at 40 uM GlcN6P; higher = faster cleavage; RNA array. In short, it runs like this:
as §1

In data set [7] the parent is B1. The data set can be described thus: self-cleavage kobs at 160 uM GlcN6P; higher = faster cleavage; RNA array. In short, it runs like this:
as §1

Consider 19 variants from the supplement of paper PMC7125110.

± gives the standard error. For part of these data: Fewer inactive variants are shown than the library holds.

What is called kcat is the number of substrate molecules converted per active site and unit of time at saturation. By KM is commonly meant the concentration of substrate that gives half-maximal velocity.

With A12C G60C, in the data set with glucosamine-6-phosphate [1], the kcat was below 1e-05 s⁻¹. In the data set with glucosamine-6-phosphate [2], the “self-cleavage kobs at 640 uM GlcN6P” value is below 1e-05 s⁻¹. Moreover, in the data set with glucosamine-6-phosphate [3], the “self-cleavage kobs at 10000 uM GlcN6P” value is below 1e-05 s⁻¹.

As for G13U U69G, the kcat in the data set with glucosamine-6-phosphate [1] worked out at 2.13e-05 ± 6.6e-06 s⁻¹.

As for U45A C50A, in the data set with glucosamine-6-phosphate [1], the kcat worked out at 1.56e-05 ± 1.5e-06 s⁻¹.

Regarding A12C G37C, in the data set with glucosamine-6-phosphate [1], the kcat came to 8.54e-05 ± 2.4e-06 s⁻¹. The KM with glucosamine-6-phosphate [4] came out at 6970 ± 420 µM. Further, the “self-cleavage kobs at 2500 uM GlcN6P” value in the data set with glucosamine-6-phosphate [5] came to 2.27e-05 ± 8.6e-06 s⁻¹. Moreover, in the data set with glucosamine-6-phosphate [3], the “self-cleavage kobs at 10000 uM GlcN6P” value was 5.03e-05 ± 7.5e-06 s⁻¹.

U46C U57C: the kcat in the data set with glucosamine-6-phosphate [1] was found to be 9.95e-05 ± 2e-05 s⁻¹. Also, in the data set with glucosamine-6-phosphate [6], the “self-cleavage kobs at 40 uM GlcN6P” value was below 1e-05 s⁻¹. In addition, in the data set with glucosamine-6-phosphate [5], the “self-cleavage kobs at 2500 uM GlcN6P” value stood at 4.88e-05 ± 2e-05 s⁻¹. In addition, the “self-cleavage kobs at 10000 uM GlcN6P” value with glucosamine-6-phosphate [3] came to 7.09e-05 ± 1.8e-05 s⁻¹.

Take C11U A14C: in the data set with glucosamine-6-phosphate [1], the kcat stood at 0.000773 ± 0.00026 s⁻¹. Besides, the “self-cleavage kobs at 160 uM GlcN6P” value with glucosamine-6-phosphate [7] came to 8.34e-05 ± 1.7e-05 s⁻¹. Further, the “self-cleavage kobs at 640 uM GlcN6P” value with glucosamine-6-phosphate [2] amounted to 0.000151 ± 2.1e-05 s⁻¹. Also, the “self-cleavage kobs at 2500 uM GlcN6P” value in the data set with glucosamine-6-phosphate [5] was 0.000275 ± 5.2e-05 s⁻¹. Besides, in the data set with glucosamine-6-phosphate [3], the “self-cleavage kobs at 10000 uM GlcN6P” value was 0.000712 ± 8.5e-05 s⁻¹.

For the variant A12U G59A, the kcat with glucosamine-6-phosphate [1] is 0.000207 ± 1.4e-05 s⁻¹. Besides, in the data set with glucosamine-6-phosphate [4], the KM turned out to be 3140 ± 430 µM. Moreover, the “self-cleavage kobs at 640 uM GlcN6P” value in the data set with glucosamine-6-phosphate [2] was found to be 3.84e-05 ± 8.7e-06 s⁻¹. In the data set with glucosamine-6-phosphate [5], the “self-cleavage kobs at 2500 uM GlcN6P” value was 8.97e-05 ± 8.8e-06 s⁻¹. For the same variant, the “self-cleavage kobs at 10000 uM GlcN6P” value with glucosamine-6-phosphate [3] was 0.000159 ± 1.8e-05 s⁻¹.

For the variant G32U G51U U55A, the kcat in the data set with glucosamine-6-phosphate [1] was 1.45e-05 ± 2.5e-06 s⁻¹.

For A14C A33U, in the data set with glucosamine-6-phosphate [1], the kcat was determined as 3.55e-05 ± 2.4e-06 s⁻¹. Further, in the data set with glucosamine-6-phosphate [4], the KM turned out to be 994 ± 450 µM. Moreover, the “self-cleavage kobs at 10000 uM GlcN6P” value with glucosamine-6-phosphate [3] came out at 3.21e-05 ± 7.6e-06 s⁻¹.

Take C61G U69C: the kcat with glucosamine-6-phosphate [1] was 6.05e-05 ± 1.7e-05 s⁻¹. The “self-cleavage kobs at 160 uM GlcN6P” value with glucosamine-6-phosphate [7] was 6.31e-05 ± 1.1e-05 s⁻¹. The “self-cleavage kobs at 640 uM GlcN6P” value with glucosamine-6-phosphate [2] stood at 5.44e-05 ± 1.3e-05 s⁻¹. Also, the “self-cleavage kobs at 2500 uM GlcN6P” value with glucosamine-6-phosphate [5] was determined as 7.59e-05 ± 1.2e-05 s⁻¹.

As to G32U G40C, the kcat with glucosamine-6-phosphate [1] was 0.000104 ± 1.3e-05 s⁻¹. The KM in the data set with glucosamine-6-phosphate [4] is 1250 ± 520 µM. In addition, the “self-cleavage kobs at 640 uM GlcN6P” value in the data set with glucosamine-6-phosphate [2] was 2.66e-05 ± 1.3e-05 s⁻¹. In addition, in the data set with glucosamine-6-phosphate [5], the “self-cleavage kobs at 2500 uM GlcN6P” value came out at 7.79e-05 ± 1.1e-05 s⁻¹. Further, the “self-cleavage kobs at 10000 uM GlcN6P” value with glucosamine-6-phosphate [3] came out at 8.66e-05 ± 1.3e-05 s⁻¹.

As for G41A U46G, in the data set with glucosamine-6-phosphate [1], the kcat came out at 0.00092 ± 0.00015 s⁻¹. In addition, the Michaelis-Menten constant (KM) with glucosamine-6-phosphate [4] came out at 2030 ± 530 µM. In addition, in the data set with glucosamine-6-phosphate [7], the “self-cleavage kobs at 160 uM GlcN6P” value came out at 6.59e-05 ± 1.8e-05 s⁻¹. For the same variant, the “self-cleavage kobs at 640 uM GlcN6P” value with glucosamine-6-phosphate [2] was 0.000206 ± 4.4e-05 s⁻¹. Also, the “self-cleavage kobs at 2500 uM GlcN6P” value with glucosamine-6-phosphate [5] is 0.000537 ± 0.00011 s⁻¹. For the same variant, the “self-cleavage kobs at 10000 uM GlcN6P” value in the data set with glucosamine-6-phosphate [3] came out at 0.000747 ± 0.00018 s⁻¹.

For the variant U46C C58A, the kcat with glucosamine-6-phosphate [1] worked out at 0.000527 ± 0.00012 s⁻¹. The “self-cleavage kobs at 640 uM GlcN6P” value with glucosamine-6-phosphate [2] came to 2.77e-05 ± 9.7e-06 s⁻¹. Moreover, the “self-cleavage kobs at 2500 uM GlcN6P” value with glucosamine-6-phosphate [5] worked out at 7.47e-05 ± 1.3e-05 s⁻¹. The “self-cleavage kobs at 10000 uM GlcN6P” value in the data set with glucosamine-6-phosphate [3] came out at 0.00022 ± 3.4e-05 s⁻¹.

G51U U55G: the kcat with glucosamine-6-phosphate [1] is below 1e-05 s⁻¹. The KM in the data set with glucosamine-6-phosphate [4] was 76.4 ± 18 µM. Moreover, the “self-cleavage kobs at 10000 uM GlcN6P” value with glucosamine-6-phosphate [3] was below 1e-05 s⁻¹.

For G29A A39U, the kcat with glucosamine-6-phosphate [1] worked out at 0.0047 ± 0.0016 s⁻¹. For the same variant, in the data set with glucosamine-6-phosphate [4], the KM came to 3440 ± 1600 µM. In addition, the “self-cleavage kobs at 40 uM GlcN6P” value with glucosamine-6-phosphate [6] was 0.000107 ± 1.9e-05 s⁻¹. Besides, the “self-cleavage kobs at 160 uM GlcN6P” value with glucosamine-6-phosphate [7] was determined as 0.000177 ± 3.4e-05 s⁻¹. Further, the “self-cleavage kobs at 640 uM GlcN6P” value in the data set with glucosamine-6-phosphate [2] was 0.000731 ± 0.00013 s⁻¹. Moreover, in the data set with glucosamine-6-phosphate [5], the “self-cleavage kobs at 2500 uM GlcN6P” value amounted to 0.00176 ± 0.0003 s⁻¹. Further, the “self-cleavage kobs at 10000 uM GlcN6P” value with glucosamine-6-phosphate [3] was 0.0037 ± 0.00049 s⁻¹.

As for G44C C71U, the kcat with glucosamine-6-phosphate [1] was found to be 1.52e-05 ± 3.3e-06 s⁻¹.

With C11U G40C C71U, the kcat in the data set with glucosamine-6-phosphate [1] was determined as 0.000141 ± 1.8e-06 s⁻¹. The KM in the data set with glucosamine-6-phosphate [4] stood at 1450 ± 65 µM. Further, the “self-cleavage kobs at 640 uM GlcN6P” value with glucosamine-6-phosphate [2] amounted to 4.4e-05 ± 1.6e-05 s⁻¹. In the data set with glucosamine-6-phosphate [5], the “self-cleavage kobs at 2500 uM GlcN6P” value stood at 8.73e-05 ± 2.5e-05 s⁻¹. In addition, the “self-cleavage kobs at 10000 uM GlcN6P” value with glucosamine-6-phosphate [3] is 0.000124 ± 1.7e-05 s⁻¹.

Regarding U49G G66A, the kcat with glucosamine-6-phosphate [1] was determined as 0.000689 ± 0.00024 s⁻¹. Moreover, in the data set with glucosamine-6-phosphate [4], the KM turned out to be 6210 ± 3000 µM. In the data set with glucosamine-6-phosphate [2], the “self-cleavage kobs at 640 uM GlcN6P” value was 5.55e-05 ± 1.3e-05 s⁻¹. In addition, the “self-cleavage kobs at 2500 uM GlcN6P” value in the data set with glucosamine-6-phosphate [5] turned out to be 0.00024 ± 3.6e-05 s⁻¹. For the same variant, the “self-cleavage kobs at 10000 uM GlcN6P” value with glucosamine-6-phosphate [3] worked out at 0.000375 ± 9.3e-05 s⁻¹.

With A12U A42G U56A C67U, the kcat with glucosamine-6-phosphate [1] is 0.004 ± 0.00068 s⁻¹. Further, in the data set with glucosamine-6-phosphate [4], the KM is 794 ± 200 µM. Further, in the data set with glucosamine-6-phosphate [6], the “self-cleavage kobs at 40 uM GlcN6P” value stood at 0.000207 ± 5.3e-05 s⁻¹. For the same variant, in the data set with glucosamine-6-phosphate [2], the “self-cleavage kobs at 640 uM GlcN6P” value was found to be 0.00156 ± 0.00046 s⁻¹. The “self-cleavage kobs at 10000 uM GlcN6P” value with glucosamine-6-phosphate [3] is 0.00431 ± 0.0015 s⁻¹.
